Data as given in doi:10.1101/2022.04.20.488894.

Biological target: α-Synuclein (UniProt P37840)
Assay: cross-linking

- P intra (intra-protein character) of the DSBU cross-link Lys-21 to Lys-32: 77%
Substance: α-Synuclein (from UniProt P37840 1-140) (natural protein)
